In assay [1] the target is CBZ-Phe-Leu-OH.
The target in assay [2] is CBZ-His-Leu-OH.
The target in assay [3] is CBZ-Trp-Leu-OH.
Assay [4] has as its target CBZ-Glu-Leu-OH.
In assay [5] the target is CBZ-Gly-Leu-OH.
For assay [6], the target named is CBZ-Pro-Leu-OH.
Assay [7] deals with CBZ-Lys-Leu-OH.
The target in assay [8] is CBZ-Ser-Leu-OH.
For assay [9], the target named is T1, yeast carboxypeptidase Y (CPD-Y), wild type (SEQ ID NO:32) (Saccharomyces cerevisiae, UniProt P00729).
T1 construct: purchased Carlbiotech, Copenhagen, Denmark
T1 sequence (P00729 112-532): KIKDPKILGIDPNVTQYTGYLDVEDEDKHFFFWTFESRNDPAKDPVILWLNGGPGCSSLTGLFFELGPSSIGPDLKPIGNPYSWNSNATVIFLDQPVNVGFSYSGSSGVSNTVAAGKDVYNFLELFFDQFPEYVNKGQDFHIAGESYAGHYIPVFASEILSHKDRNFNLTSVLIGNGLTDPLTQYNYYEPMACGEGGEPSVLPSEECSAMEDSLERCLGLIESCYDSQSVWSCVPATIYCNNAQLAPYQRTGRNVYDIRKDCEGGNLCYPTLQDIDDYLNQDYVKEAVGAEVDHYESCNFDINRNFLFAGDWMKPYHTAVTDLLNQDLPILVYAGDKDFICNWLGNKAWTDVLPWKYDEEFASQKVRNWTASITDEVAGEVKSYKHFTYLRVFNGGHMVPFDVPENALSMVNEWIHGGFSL
The assay can be described thus: Aminolysis of ester/peptide substrates; KN(app) of nucleophile. It counts as biochemical. The note with it: for KN(app): Table III (unit as in Tables I, II), ester substrate; for KN,app (H-Gly-NH2 as nucleophile): substance of the line is the substrate (leaving group phenylalanine or L-β-phenyllactic acid), enzyme not named, taken as CPD-Y. Here is the method:
(§1) Aminolysis reactions were carried out in the following way. The nucleophile was dissolved in 50 mM Hepes, 5 mM EDTA and pH was adjusted to 7.5. Five (5) μl of substrate (8 mM FA-Ala-OBzl in methanol) was added to 190 μl nucleophile solution followed by 5 μl enzyme, resulting in a substrate concentration of 0.2 mM. For reactions carried out at pH 9.5, Hepes was replaced with Ches. During the reaction, 20 μl aliquots were removed from the reaction mixture and added to 50 μl 1% trifluoroacetic acid to quench the reaction. The reactant composition was determined by HPLC using a Waters HPLC equipped with a C-18 Waters Novapac 4μ reverse phase column and various gradients of acetonitrile in 0.1% trifluoroacetic acid. The separation was monitored at 302 nm allowing the direct quantification of the products from the integrated peak areas. The composition of the reaction mixture was determined at least twice during the reaction, the first time when 20-50% (preferably 35%) of the ester substrate had been consumed in the reaction and the second time when 50-90% (preferably 80%) of the substrate had been consumed. The products were collected and identified by amino acid analysis after acid hydrolysis using a Pharmacia Alpha Plus analyzer.
(§2) Further identification was obtained by co-chromatography of authentic standard compounds. The fraction of aminolysis (fa) was expressed as the ratio between the formed aminolysis product and the sum of all products being formed, i.e., unconsumed substrate was disregarded in the calculations. The KN(app), representing the nucleophile concentration at which fa is half the maximum value (a measure for the dissociation constant of the nucleophile), and famax (the highest possible fa obtained at saturation of the enzyme with nucleophile) were determined by fitting the values of fa obtained at a minimum of seven concentrations of nucleophile to a saturation. The value of fa obtained at the highest possible nucleophile concentration is designated fasat.
(§3) Aminolysis reactions were carried out in the following way. The nucleophile was dissolved in 50 mM HEPES, 5 mM EDTA and pH was adjusted to 7.5, 5 μl substrate (8 mM FA-Ala-OBzl or FA-Ala-Xaa-OH in methanol) was added to 190 μl nucleophile solution followed by 5 μl enzyme diluted in buffer to the appropriate concentration, resulting in a substrate concentration of 0.2 mM. During the reaction, 20 μl aliquots were removed from the reaction mixture and added to 50 μl 1% trifluoroacetic acid to quench the reaction. The reactant composition was determined by HPLC using a Waters HPLC equipped with a C-18 Waters Novapac 4μ reverse phase column and various gradients of acetonitrile in 0.1% trifluoroacetic acid. The separation was monitored at 302 nm allowing the direct quantification of the products from the integrated peak areas. The products were collected and identified by amino acid analysis after acid hydrolysis (Pharmacia Alpha Plus analyzer) and by co-chromatography of authentic standards. The fraction of aminolysis (fa) was expressed as the ratio between the formed aminolysis product and the sum of all products being formed, i.e. unconsumed substrate was disregarded in the calculations. The KN,app (a measure for the dissociation constant of the nucleophile) and famax (the highest possible fa obtained at saturation with nucleophile were determined by fitting the obtained fa values to the equation fa=famax /(1+KN,app /N).

In assay [10] the target is T2, carboxypeptidase Y (CPD-Y) variant N51Q (Asn51 replaced with glutamine) (Saccharomyces cerevisiae, UniProt P00729, N162Q).
T2 construct: made in house; host or cells: S. cerevisiae W2579 (secreted)
T2 sequence (P00729 112-532 N162Q): T1 sequence (P00729 112-532) with N51Q
The assay can be described thus: Aminolysis; KN(app) of nucleophile. It counts as biochemical, yeast. The note with it: Table V; amino acid nucleophile, FA-Ala-OBzl as substrate, pH 7.5. How it is done: as §1, §2, §3

Residue numbers refer to the chain shown, from its start. Peptide text beside a SMILES is read from it. * marks the point of attachment. Bz = O=C(c1ccccc1)*

In the case of “carboxypeptidase Y mutant 178His/215Thr/216Phe (enzyme)”, the estimated CPD-Y activity relative to wild type transformants (fold of wild type) was 0.9 in assay [1]; 1.1 in assay [2]; 1.7 in [3]; 1.2 in assay [4]; 0.8 in assay [5]; 1.2 in assay [6]. Further, the estimated CPD-Y activity relative to wild type transformants (fold of wild type) in assay [7] is 3.1; in assay [8], 1.
As for `NC(=O)CC[C@H](N)C(=O)O` [H--Gln--OH, H-Gln-OH], the “KN(app)” value in [9] (amino acid nucleophile) is reported as 150 ± 8 mM.
As for “carboxypeptidase Y mutant 178Cys (enzyme)”, the estimated CPD-Y activity relative to wild type transformants (fold of wild type) in assay [2] is 1.7; in [3], 1; in [4], 1.1; in assay [5] it was 0.9; in [6] it was 0.3; in [7], 6.9. For the same compound, the estimated CPD-Y activity relative to wild type transformants (fold of wild type) in assay [8] is 0.5.
With `N[C@@H](CO)C(=O)O` [H--Ser--OH, H-Ser-OH], the “KN(app)” value in assay [9] (amino acid nucleophile) is recorded as 310 ± 20 mM.
The same measure, in the same setting: the result for `N[C@@H](Cc1c[nH]cn1)C(=O)O` [H--His--OH, H-His-OH] reads 87 ± 9 mM; that for `NCC(=O)O` [H--Gly--OH, H-Gly-OH], 1500 ± 50 mM.
Turning to “carboxypeptidase Y mutant 178His/215Pro/216Thr (enzyme)”, the estimated CPD-Y activity relative to wild type transformants (fold of wild type) was 0.9 in [1]; 1.1 in [2]; 1.5 in assay [3]; 1 in assay [4]; 0.8 in assay [5]; 1.2 in assay [6]. The estimated CPD-Y activity relative to wild type transformants (fold of wild type) in assay [7] was 3.6; in assay [8], 1.1.
Take “carboxypeptidase Y mutant 178Ala/215Ser/216Arg (enzyme)”: the estimated CPD-Y activity relative to wild type transformants (fold of wild type) in [1] was 1.2; in [2] it was 1; in assay [3] it was 1.1; in assay [4], 1.4; in assay [5] it was 1.1; in [6], 0.6. The estimated CPD-Y activity relative to wild type transformants (fold of wild type) was 4 in assay [7] and 1.3 in [8].
Turning to `O=C(CNC(=O)c1ccccc1)N[C@@H](Cc1ccccc1)C(=O)O` [Hippuryl-L-Phe-OH] (Bz-Gly-Phe-OH), the “KN,app (H-Gly-NH2 as nucleophile)” value in assay [9] stood at 0.63±0.06.
With “carboxypeptidase Y mutant 178Gly/340Ile/341Cys (enzyme)”, the estimated CPD-Y activity relative to wild type transformants (fold of wild type) in assay [1] is 0.8; in assay [2] it was 0.8; in [3], 0.5; in assay [4] it was 0.8; in assay [5] it was 0.3; in assay [6], 0.5. Moreover, the results for the estimated CPD-Y activity relative to wild type transformants (fold of wild type) in assay [7] and in assay [8] were 4.6 and 0.3, respectively.
On to `O=C(CNC(=O)c1ccccc1)O[C@@H](Cc1ccccc1)C(=O)O` [Hippuryl-L-β-Phenyllactic acid], for which the “KN,app (H-Gly-NH2 as nucleophile)” value in assay [9] is on record as 0.47±0.05.
Regarding “carboxypeptidase Y mutant 178Cys/215Thr/216Trp (enzyme)”, the estimated CPD-Y activity relative to wild type transformants (fold of wild type) is 1 in assay [1]; 1.1 in assay [2]; 0.9 in [3]; 1.1 in assay [4]; 0.8 in assay [5]; 1.6 in assay [6]. In addition, the estimated CPD-Y activity relative to wild type transformants (fold of wild type) in assay [7] was 5.3; in assay [8], 0.4.
Regarding `NCCCC[C@H](N)C(=O)O` [H--Lys--OH, H-Lys-OH], in assay [9] (amino acid nucleophile), the “KN(app)” value was found to be 190 ± 30 mM.
Turning to “carboxypeptidase Y mutant 178Asn/215Ala/216Gly (enzyme)”, the estimated CPD-Y activity relative to wild type transformants (fold of wild type) in assay [1] was 2.8; in assay [2], 1.3; in assay [3], 2; in assay [4], 2; in assay [5] it was 0.7; in [6] it was 0.9. For the same compound, the values for the estimated CPD-Y activity relative to wild type transformants (fold of wild type) in assay [7] and in assay [8] were 4.4 and 0.7, respectively.
For `C[C@H](N)C(=O)O` [H--Ala--OH, H-Ala-OH], the “KN(app)” value in [9] (amino acid nucleophile) was determined as 83 ± 7 mM. Besides, the “Kn,app” value in assay [9] (Table V, amino acid nucleophile, FA-Ala-OBzl as substrate, pH 7.5) is reported as 83 ± 7 mM; in assay [10] it was 250 ± 15 mM.
As to `N[C@@H](Cc1ccccc1)C(=O)O` [H--Phe--OH, H-Phe-OH], in assay [9] (amino acid nucleophile), the “KN(app)” value amounted to 9.5 ± 1 mM. The “Kn,app” value in assay [10] was determined as 29 ± 1 mM.
